Test results as given in US20190016826A1 (Genentech, published 2019).

Columns and labels:
[1] = molecular target: Protease domain of murine HtrA1 (MuHtrA1_PD) (G156-S367) (murine, UniProt Q9R118 156-367); assay: SPR (BIAcore T100), single-cycle kinetics, biotinylated MuHtrA1_PD captured on streptavidin, Fab in solution
Method: Briefly, series S sensor chip CM5 was activated with EDC and NHS reagents according to the supplier's instructions, and streptavidin (Pierce) was coupled to achieve approximately 2000 response units (RU), followed by blocking unreacted groups with 1M ethanolamine.
The sensorgrams were recorded and evaluated by BIAcore™ T100 Evaluation Software (version 2.0) after subtraction of reference cell signal. Association rates (kₒₙ) and dissociation rates (koff) were calculated using a simple one-to-one Langmuir binding model. The equilibrium dissociation constant (KD) was calculated as the ratio […] (see Table 1 below).

[2] = molecular target: T1, Full length murine HtrA1 (MuHtrA1) (P24-P480), N-terminal His6 tag (murine, UniProt Q9R118 24-480); assay: SPR (BIAcore T100), single-cycle kinetics, biotinylated murine HtrA1 captured on streptavidin, Fab in solution
T1 construct: Expressed in insect cells
T1 sequence (Q9R118 other isoform, or with tags, fused parts or gaps): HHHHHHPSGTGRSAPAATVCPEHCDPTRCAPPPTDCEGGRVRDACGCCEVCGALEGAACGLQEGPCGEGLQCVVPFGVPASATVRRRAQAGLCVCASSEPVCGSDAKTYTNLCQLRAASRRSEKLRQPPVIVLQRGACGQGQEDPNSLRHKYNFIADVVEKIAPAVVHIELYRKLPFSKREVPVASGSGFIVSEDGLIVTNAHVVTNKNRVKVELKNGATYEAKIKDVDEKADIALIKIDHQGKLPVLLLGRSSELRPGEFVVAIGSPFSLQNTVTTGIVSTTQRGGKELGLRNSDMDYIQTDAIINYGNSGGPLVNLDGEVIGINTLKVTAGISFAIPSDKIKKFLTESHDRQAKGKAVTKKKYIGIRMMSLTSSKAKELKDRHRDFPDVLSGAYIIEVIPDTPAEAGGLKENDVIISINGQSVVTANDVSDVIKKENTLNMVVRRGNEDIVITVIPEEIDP
Source text: (§1) To determine the binding affinity of HtrA1 antibodies by single cycle kinetics, Surface Plasmon Resonance (SRP) measurement with a BIAcore™ T100 instrument was used. Briefly, a series S sensor chip CM5 was activated with EDC and NHS reagents according to the supplier's instructions, and streptavidin (Pierce) was coupled to achieve approximately 2000 response units (RU), followed by blocking un-reacted groups with 1M ethanolamine.
(§2) For kinetics measurements, biotinylated human or murine HtrA1 was first injected at 10 ul/min flow rate to capture approximately 100 RU at 3 different flow cells (FC), except for FC1 (reference), and then 5-fold serial dilutions of anti-HtrA1 Fab in HBS-P buffer (0.01M HEPES pH 7.4, 0.15M NaCl, 0.005% surfactant P20) from low (0.48 nM) to high (300 nM) [5 points] were injected (flow rate: 30 μl/min) one after the other in the same cycle with no regeneration between injections. The sensorgram was recorded and subject to reference and buffer subtraction before evaluation by BIAcore™ T100 Evaluation Software (version 2.0). Association rates (km) and dissociation rates (koff) were calculated using a simple one-to-one Langmuir binding model. The equilibrium dissociation constant (Kd) was calculated as the ratio koff/kₒₙ.

[3] = molecular target: T2, Protease domain of human HtrA1 (HuHtrA1_PD), residues D161-K379 (human, UniProt F1N152 168-386 (bovine entry)); assay: ELISA on plate-coated wild-type HuHtrA1_PD, row WT (Example 7); column head on the sheet reads YW505.94 Fab, legend paragraph 70 says IgG94
T2 construct: Expressed in E. coli; not shown: thrombin cleavage site between tag and D161
T2 sequence (F1N152 other isoform, or with tags, fused parts or gaps): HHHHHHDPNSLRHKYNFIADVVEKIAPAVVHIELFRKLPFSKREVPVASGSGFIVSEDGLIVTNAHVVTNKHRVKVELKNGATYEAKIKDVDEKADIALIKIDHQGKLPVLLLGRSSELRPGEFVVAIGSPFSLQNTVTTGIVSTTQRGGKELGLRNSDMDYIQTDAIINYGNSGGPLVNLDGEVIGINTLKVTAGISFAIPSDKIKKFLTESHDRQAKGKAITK
Method: The mutants were expressed in E. coli and the trimers purified by size exclusion chromatography as described in Example 2. Binding was determined using an ELISA assay, which was conducted using a MAXISORP™ microtiter plate coated with HuHtrA1_PD mutants at 2 μg/ml in PBS for 1 h, followed by blocking with PBST buffer (0.5% BSA and 0.05% Tween 20 in PBS) for 1 h at room temperature. […] The plates were washed with PBT buffer (0.05% Tween 20 in PBS), and HRP-conjugated goat anti-human IgG (H+L) (Invitrogen) was added (1:5000 in PBST buffer) and incubated for 1 h. The plates were washed with PBT buffer and developed by adding tetramethylbenzidine substrate (Kirkegaard and Perry Laboratories, Gaithersburg, Md.). The absorbance at 450 nm was plotted as a function of antibody concentration in solution to determine EC₅₀ values.

[4] = molecular target: T3, Full length human HtrA1 (HuHtrA1) (Q23-P480), N-terminal His6 tag (human, UniProt Q92743 23-480); assay: SPR (BIAcore T100), single-cycle kinetics, biotinylated human HtrA1 captured on streptavidin, Fab in solution
T3 construct: Expressed in Trichoplusia ni insect cells
T3 sequence (Q92743 other isoform, or with tags, fused parts or gaps): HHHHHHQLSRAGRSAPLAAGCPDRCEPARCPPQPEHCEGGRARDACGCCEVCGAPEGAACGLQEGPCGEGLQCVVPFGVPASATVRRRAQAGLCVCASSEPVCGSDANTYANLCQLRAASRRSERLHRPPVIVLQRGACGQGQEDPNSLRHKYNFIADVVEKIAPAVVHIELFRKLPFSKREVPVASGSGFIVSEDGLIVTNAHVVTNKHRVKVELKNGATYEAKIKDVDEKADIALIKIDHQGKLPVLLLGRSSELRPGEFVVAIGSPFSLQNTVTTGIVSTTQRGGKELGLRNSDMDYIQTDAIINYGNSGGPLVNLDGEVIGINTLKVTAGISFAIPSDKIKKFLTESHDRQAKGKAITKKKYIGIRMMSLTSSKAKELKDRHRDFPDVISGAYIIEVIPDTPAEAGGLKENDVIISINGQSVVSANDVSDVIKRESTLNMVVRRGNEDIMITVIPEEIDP
Source text: as §1, §2

Protease domain of murine HtrA1 (MuHtrA1_PD) (G156-S367), sequence (Q9R118 other isoform, or with tags, fused parts or gaps): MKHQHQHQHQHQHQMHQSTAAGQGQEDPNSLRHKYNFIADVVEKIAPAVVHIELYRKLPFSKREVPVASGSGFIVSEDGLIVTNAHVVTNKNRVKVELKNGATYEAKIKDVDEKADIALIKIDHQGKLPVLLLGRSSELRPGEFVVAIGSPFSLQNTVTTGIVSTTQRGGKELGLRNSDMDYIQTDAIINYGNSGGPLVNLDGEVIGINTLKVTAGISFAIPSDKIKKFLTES

B1: Fab94 (anti-HtrA1 antibody YW505.94, Fab format) (Fab, V domains shown)
VH: EVQLVESGGGLVQPGGSLRLSCAASGFNISGYYIHWVRQAPGKGLEWVGWIDPYGGDTNYADSVKGRFTISADTSKNTAYLQMNSLRAEDTAVYYCARGTFLTSWGHYFDYWGQGT
VL: DIQMTQSPSSLSASVGDRVTITCRASQDVSTAVAWYQQKPGKAPKLLIYSASFLYSGVPSRFSGSGSGTDFTLTISSLQPEDFATYYCQQSYTTPPTFGQGTKVEIKR
Binder B1 has a Kd [1] of 28.9 nM, a koff [1] of 0.0129 s⁻¹ and a kon [1] of 450000 M⁻¹ s⁻¹. For the same binder, the Kd [2] was 28.9 nM, the koff [2] was 0.0129 s⁻¹ and the kon [2] was 447000 M⁻¹ s⁻¹. For the same binder, the EC50 [3] was 5.6 nM, the “Relative to WT EC50 Fold Decrease” value [3] was 1 fold and the Kd [4] was 31.1 nM. For the same binder, the koff [4] was 0.0109 s⁻¹ and the kon [4] was 351000 M⁻¹ s⁻¹.
